Reference: US20140273151

Target: T1, Substrate No. 19
T1 chain: DEVD

B1: caspase-3 enzyme (Biovision Inc., Mountain View, Calif.) (protein)
chain: SGISLDNSYKMDYPEMGLCIIINNKNFHKSTGMTSRSGTDVDAANLRETFRNLKYEVRNKNDLTREEIVELMRDVSKEDHSKRSSFVCVLLSHGEEGIIFGTNGPVDLKKITNFFRGDRCRSLTGKPKLFIIQACRGTELDCGIETDSGVDDDMACHKIPVEADFLYAYSTAPGYYSWRNSKDGSWFIQSLCAMLKQYADKLEFMHILTRVNRKVATEFESFSFDATFHAKKQIPCIVSMLTKELYFYH
- fluorescence signal over time (excitation 485 nm, emission 530 nm) in the presence of dsDNA; enzymatic cleavage assay: The data demonstrates that Substrate No. 19 is a substrate for caspase-3 enzyme.
